# Assay results taken from article PMC6396024, “Artemin and an Artemin-Derived Peptide, Artefin, Induce Neuronal Survival, and Differentiation Through Ret and NCAM” (Frontiers in Molecular Neuroscience, 2019).
# Bridge positions count the residues as written; N and C are the ends. Ends that are not written are not given here. I, II: the chains in the order shown.
# B1: recombinant human Artemin (ARTN) (ligand, UniProt Q5T4W7 108-220, looked up)
# chain: AGGPGSRARAAGARGCRLRSQLVPVRALGLGHRSDELVRFRFCSGSCRRARSPHDLSLASLLGAGALRPPPGSRPVSQPCCRPTRYEAVSFMDVNSTWRTVDRLSATACGCLG
# notes: Artemin (ARTN), human, UniProt D3DPX9; source: bought: R&D Systems
# Columns and labels:
# [1] = tested on: NCAM; cerebellar granule neurons (CGNs); test: Neurite outgrowth in CGNs with NCAM knock down (NCAM shRNA); assay type: cell-based, Wistar rat; conditions: 24 h, P2-d 8 μg/ml, ARTN 0.21 nM, artefin 1.4 μM; for neurite outgrowth in NCAM knock down neurons: NCAM shRNA; for neurite outgrowth in mock-transfected neurons: empty vector, versus control
# Method: (§1) Cerebellar granule neurons (CGNs) were prepared from 7-day-old Wistar rat pups (Charles River Laboratories, Sulzfeld, Germany) as previously described ([Schousboe et al., 1989]). Briefly, pups were decapitated, and the cerebellum was removed and cleared from blood vessels and meninges in ice-cold modified Krebs-Ringer buffer. The cerebellum was dissociated by chopping and trypsinization. Cells were washed in Krebs-Ringer buffer containing DNAse I (Sigma, St. Louis, MO, United States) and soybean trypsin inhibitor (Sigma) to stop trypsinization, and the remaining tissue pieces were pelleted by centrifugation. Cells were then washed in Krebs-Ringer buffer containing Ca^2+ and Mg^2+ and re-suspended in appropriate Neurobasal^TM medium (Invitrogen, Taastrup, Denmark) with supplements depending on the experiment.
# To evaluate the involvement of NCAM and RET in neurite outgrowth induced by either ARTN or artefin, CGNs (3 × 10^6 per transfection) were transfected with 3 μg DNA using a Nucleofector^TM 2b device and a Rat Neuron Nucleofector Kit (Amaxa, Inc., Gaithersburg, MD, United States). A kinase-deleted dominant negative RET insert was obtained by direct PCR using a commercially available clone (IRAKp961P02132Q; RZPD, Berlin, Germany) encoding full-length mouse RET coding sequence 586–3807 nt. as template. The upper primer […] contained a NheI restriction site and Kozak sequence, and the lower primer […] encoded Streptag II and NotI restriction sites. The dominant negative RET insert and the pcDNA5/FRT expression vector containing the Flp-In system were cut with NheI and NotI restriction enzymes, purified, ligated using the Rapid DNA Ligation Kit (Roche, Basel, Switzerland), and transfected into One Shot TOP10 E. coli (Invitrogen, Taastrup, Denmark). E. coli colonies containing the dominant negative RET insert were identified by PCR, and one insert-positive colony was used for plasmid purification. The identity of the purified plasmid was verified by restriction cutting and sequencing of the insert. For NCAM knock down, we used a pENTR vector containing the shRNA expression cassette for NCAM knock down ([Hansen et al., 2007]). An empty vector was used as a control. To identify transfected neurons, all transfections were performed as co-transfections with 0.5 μg pEGFP-N1, an expression vector encoding the enhanced variant of green fluorescent protein (GFP; Clontech, Palo Alto, CA, United States). Transfected CGNs were seeded in Neurobasal^TM-A medium supplemented with 2% (v/v) B27, 5% (v/v) FCS, and 2 mM Glutamax at a density of 1 × 10^5 cells/cm^2.
# (§2) To estimate neurite outgrowth, neurons were fixated 24 h after stimulation and stained with rabbit anti-growth-associated-protein-43 (GAP-43) antibody (Chemicon International, Inc., Temecula, CA, United States) or anti-GFP antibody (for transfection experiment) overnight at 4°C followed by incubation with secondary Alexa-conjugated goat anti-rabbit antibodies (Invitrogen, Taastrup, Denmark). In case of experiments with plasmid transfection, the transfection efficiency was ca. 20% of total cells and the neurite outgrowth was evaluated only in GFP-positive, i.e., transfected, cells. For representative pictures, cells were additionally co-stained with Hoechst 33258.
# (§3) Computer-assisted fluorescent microscopy was performed using a Nikon Diaphot 300 inverted microscope (Nikon) equipped with a Nikon Plan 20× objective and coupled to a video camera (Grundig Electronics, Germany). For each condition in each experiment, including the experiment with transfections, images of approximately 200 cells were recorded in systematic series of fields of view, and neurite outgrowth was quantified using a stereological approach as previously described ([Rønn et al., 2000]).
# FIGURE 7 Neuritogenic effect of ARTN and artefin in (A) dominant negative RET or (B) knock down NCAM-expressing CGNs. […]
# [2] = tested on: FGFR; cerebellar granule neurons (CGNs); test: Neurite outgrowth in CGNs with FGFR-inhibitor SU5402; assay type: cell-based, Wistar rat; conditions: SU5402 20, 40, 80 μM; ARTN 0.21 nM or artefin 1.4 μM; p < 0.01
# Method: as §1
# Cerebellar granule neurons CGNs were re-suspended in Neurobasal^TM medium supplemented with 2% (v/v) B27, 0.5% (v/v) glutamax, 100 U/ml penicillin, 100 μg/ml streptomycin, 0.4% (w/v) BSA, and 20 mM HEPES and were seeded in 8-well LabTek Permanox chamber slides (Nunc) at a density of 1 × 10^4 cells/cm^2. Various concentrations of ARTN, artefin, scrambled artefin, or reversed artefin were added to neurons immediately after seeding. For the RET inhibition assay, the inhibitory goat anti-mouse RET antibody (4.1 μg/ml; R&D systems, Abingdon, United Kingdom) or control goat IgG (4.1 μg/ml; Santa Cruz Biotechnology, Dallas, TX, United States) were added to neurons 1 h before stimulation with ARTN (0.042 nM) […]. For the competition assay between growth factor and mimetic peptide, a combination of ARTN (2.1 nM) and artefin (4.2 μM) was added to the cells immediately after seeding. […]
# as §2, with “For representative pictures, cells were additionally co-stained with Hoechst 33258.” left out
# as §3, with “2000]). […]” for “2000]).”
# dopaminergic neurons = conditions: in vitro; ref Rosenblad et al., 2000; Sariola and Saarma, 2003; cited from earlier work
# Text: (§4) Artemin (ARTN) is a member of the glial cell line-derived neurotrophic factor family ligands (GFLs) which includes three other members: glial cell line-derived neurotrophic factor (GDNF), neurturin (NRTN), and persephin (PSPN) ([Baloh et al., 1998b]; [Airaksinen and Saarma, 2002]). GFLs affect the generation, survival, and growth of neurons in different CNS neuronal populations, including midbrain dopaminergic neurons, central motor neurons, and noradrenergic neurons ([Airaksinen and Saarma, 2002]). Similar to GDNF, ARTN is a potential neuroprotective agent as it promotes the survival of dopam ...
# mice = conditions: intracerebroventricular, ref Mannelli et al., 2011; cited from earlier work
# Text: as §4
Molecule,neurite outgrowth in NCAM knock down neurons [1],neurite outgrowth in mock-transfected neurons [1],neurite outgrowth effect in the presence of SU5402 [2],survival of dopaminergic neurons (dopaminergic neurons),antidepressant effects (mice)
"I: RSPHDLSLASLLGAGKK-NH2 / II: RSPHDLSLASLLGAGK / III: RSPHDLSLASLLGAG / IV: RSPHDLSLASLLGAG (amide I:16-IV:C, I:17-II:C, II:16-III:C; C-terminus assumed) [artefin]",abrogated in neurons where NCAM expression was knocked down (p < 0.001,promoted the neurite outgrowth in mock-transfected neurons (p < 0.01),dose-dependently inhibited the neurite outgrowth effect of artefin,–,–
B1,completely abolished the neurite outgrowth effect of ARTN,significantly higher level of neurite outgrowth compared to unstimulated controls (p < 0.05,completely abolished in the presence of serially diluted inhibitor,promotes the survival of dopaminergic neurons in vitro,dose-dependent antidepressant effects
